In patent US20050031613A1:

Columns and labels:
[1] = target: soluble hFcγRIIIa(F) (human) (UniProt P08637); experiment: SPR, BIAcore 2000; shFcγRIIIa captured by anti-His antibody on CM5 chip; KA from the equilibrium value of the binding
[2] = target: soluble hFcγRIIIa(V) (human) (UniProt P08637); experiment: SPR, BIAcore 2000; shFcγRIIIa captured by anti-His antibody on CM5 chip, antibody in flow (0.625 to 20 µg/ml)
[3] = target: soluble hFcγRIIIa(V) (human) (UniProt P08637); experiment: SPR, BIAcore 2000; end of the range tied to this antibody by Table 3 (0.48/0.28)

Rituxan™ (antibody) showed a Ka [1] of 2.8e+06 M⁻¹, a Ka [2] of 4.8e+06 M⁻¹ and a koff [2] of 0.0071 s⁻¹. The kon [2] was 34000 M⁻¹ s⁻¹ and the fold higher KA for shFcγRIIIa(V) than for shFcγRIIIa(F) [3] was 2 to 3 times.
